Data set [1] relates to neutral lipids in and on the Bruch's membrane. As to the kind of experiment: Oil red O staining of neutral lipids in and on the Bruch's membrane, geriatric macaques with age-related maculopathy. Particulars: injected eyes after 6 monthly intravitreal injections (total 625 μg), compared to eyes injected with placebo. The class given is in vivo, Macaca fascicularis. The procedure:
(§1) The macaque study was conducted according to accepted guidelines. […] One eye per animal received 6 monthly injections of the same escalating dosages of L-4F or scrambled L-4F (total of 625 μg) in a 50 μL volume. The second eye per animal was not injected and was just observed.
Clinical laboratory tests including serology, hemograms and liver enzymes were conducted, and ophthalmic examinations were also performed, including fundus photographs, optical coherence tomography (OCT), intraocular pressure testing and blood sampling. After 7 months, all animals were sacrificed and eyes were immediately prepared for histology. Histochemistry was performed with oil red O for neutral lipids and filipin for esterified cholesterol. […]
For staining with oil red O (ORO), specimens were treated with a 0.3% oil red O (Sigma-Aldrich Biochemie GmbH, Hamburg, Germany) solution (in 99% isopropanol) for 30 min at room temperature (RT), followed by immersion in a 60% isopropanol solution for 12 min. […] Image analysis was performed by grading the intensity of ORO staining (red color) of the Bruch's membrane (BrM) with scores ranging from 0 to 4, according to a qualitative evaluation assessed in four different regions in two separate slices from each eye (a total of 8 different regions from each eye). […]

Data set [2] is described as follows: Tolerability of intravitreal injections, macaque study. The following applies: 6 monthly intravitreal injections, all macaques; no significant adverse event or side effect. The class given is in vivo, Macaca fascicularis. The procedure: as §1
Clinical laboratory tests including serology, hemograms and liver enzymes were conducted, and ophthalmic examinations were also performed, including fundus photographs, optical coherence tomography (OCT), intraocular pressure testing and blood sampling. After 7 months, all animals were sacrificed and eyes were immediately prepared for histology. Histochemistry was performed with oil red O for neutral lipids and filipin for esterified cholesterol. Immunohistochemistry was performed against complement factor D (CFD) and the membrane attack complex (MAC, C5b-9), both being markers of activation of the alternative complement pathway.
Circulating hsCRP, which is mainly produced in the liver, is a non-specific marker for systemic inflammation.

For data set [3] the following is noted: estimated; cited from earlier work.
The target in data set [4] is T1, complement factor D (CFD) (Homo sapiens, UniProt P00746).
T1 construct: host or cells: Endogenous CFD in the eyes of AMD patients
Particulars: patients, monthly intravitreal 10 mg in one eye for 18 months, injected eye, compared to placebo; cited from earlier work.

The conditions of data set [5]: without encapsulated cell technology; cited from earlier work.

T1 sequence (P00746 26-253): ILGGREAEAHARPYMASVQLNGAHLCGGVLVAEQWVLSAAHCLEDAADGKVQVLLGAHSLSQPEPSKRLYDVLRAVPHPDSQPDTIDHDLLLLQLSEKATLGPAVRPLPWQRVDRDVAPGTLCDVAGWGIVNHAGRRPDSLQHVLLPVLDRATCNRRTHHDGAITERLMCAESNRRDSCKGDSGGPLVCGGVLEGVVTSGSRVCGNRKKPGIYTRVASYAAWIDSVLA

As for “Ac-DWFKAFYDKVAEKFKEAF-NH2 [L-4F, Ac-DWFKAFYDKVAEKFKEAF-NH2 acetate salt]”, in data set [1], the “reduction of lipid deposits from the BrM (oil red O staining)” value was “about 56%”. For the same molecule, in data set [2], the tolerability result was “well tolerated”.
On to “aflibercept: soluble fusion protein containing extracellular domains of VEGFRs; anti-VEGF agent”, for which the intravitreal half-life entry in data set [3] was “about 9.0 days”.
For the molecule bevacizumab: anti-VEGF antibody, the intravitreal half-life entry in data set [3] was “about 9.8 days”.
For “lampalizumab: antigen-binding fragment (Fab) of a humanized monoclonal antibody targeting complement factor D (CFD)”, the “reduction in the rate of GA enlargement, and hence the area of GA” value in data set [4] is “about 20%”.
As for “ranibizumab: anti-VEGF antibody fragment”, the intravitreal half-life entry in data set [3] was “about 7.1 days”.

B1: CNTF: ciliary neurotrophic factor, an endogenous neuroprotector (protein, UniProt P26441 1-200, looked up)
Ciliary neurotrophic factor: MAFTEHSPLTPHRRDLCSRSIWLARKIRSDLTALTESYVKHQGLNKNINLDSADGMPVASTDQWSELTEAERLQENLQAYRTFHVLLARLLEDQQVHFTPTEGDFHQAIHTLLLQVAAFAYQIEELMILLEYKIPRNEADGMPINVGDGGLFEKKLWGLKVLQELSQWTVRSIHDLRFISSHQTGIPARGSHYIANNKKM
Regarding B1, the “half-life of CNTF” value in data set [5] was 1 to 3 min.

Values taken from patent US20180296525A1, “TREATMENT OF AGE-RELATED MACULAR DEGENERATION AND OTHER EYE DISEASES WITH ONE OR MORE THERAPEUTIC AGENTS” (MacRegen, Inc., priority 2017, published 2018).
